Test results as given in article PMC10784468 (Nature Communications, 2024).
Values joined by “and” are separate entries in the source; they are usually repeats but may differ in a detail not shown here. Identical values can stand only once. Like-named read-outs stand apart in the source and are kept apart here. Positions of bridges follow the written chain, without caps; N, C: chain ends. Residues, ends and D or L forms follow the SMILES beside them. *: point of attachment. X1 = O=C(O)c1ccc(-c2c3nc(c(-c4ccc(C(=O)O)cc4)c4ccc([nH]4)c(-c4ccc(C(=O)*)cc4)c4nc(c(-c5ccc(C(=O)O)cc5)c5ccc2[nH]5)C=C4)C=C3)cc1; X2 = O=C(O)C/C(=C/C(=O)*)C(=O)O

Experiments:
[1] = for Tumor Drug concentration: EJ xenograft mice, tumor lysate fluorescence
Procedure: Moreover, ex vivo fluorescence imaging of tumor and major organs was performed to investigate the dose-dependent tumor accumulation of Gi-F-CAA (Fig. 3e and Supplementary Fig. 25). […] Subsequently, time-dependent in vivo fluorescence imaging of EJ xenograft mice was conducted to investigate the in vivo biodistribution and metabolism of Gi-F-CAA after administrated with Gi-F-CAA (8 mg/kg in 100 μL PBS). […] Representative time-dependent fluorescence images of tumor tissue lysates and plasma were acquired after intravenous administration with Gi-F-CAA (8 mg/kg in 100 μL PBS) (Fig. 3h).
(§1) Firstly, A density of 5 × 10^6 EJ cell resuspended in Matrigel were subcutaneously injected into the right hind of mice to construct EJ xenograft model. When the tumor volume reached about 200–400 mm^3, the mice were administrated with Cy labeled Gi-F (8 mg/kg in 100 μL PBS), Cy labeled Gi-F-SA (8 mg/kg in 100 μL PBS) and Cy labeled Gi-F-CAA (8 mg/kg in 100 μL PBS) by intravenous injection for in vivo fluorescence imaging at different timepoints (10 min, 20 min, 40 min, 1 h, 2 h, 4 h, 8 h, 12 h and 24 h) with in vivo imaging system (IVIS). Meanwhile, the EJ xenograft mice were sacrificed for collecting major organs and tumors to evaluate the biodistribution of Gi-F-CAA.

[2] = Cy-labeled
Procedure: as §1, with “([…]),” for “(8 mg/kg in 100 μL PBS),”, “([…])” for “(8 mg/kg in 100 μL PBS)”

[3] = ex vivo, i.v., EJ xenograft mice
[4] = ex vivo, EJ xenograft mice, i.v. 0.5 mg/kg, mice 1
[5] = ex vivo, EJ xenograft mice, i.v. 0.5 mg/kg, mice 2
[6] = ex vivo, EJ xenograft mice, i.v. 0.5 mg/kg, mice 3
[7] = ex vivo, EJ xenograft mice, i.v. 1 mg/kg, mice 1
[8] = ex vivo, EJ xenograft mice, i.v. 1 mg/kg, mice 2
[9] = ex vivo, EJ xenograft mice, i.v. 1 mg/kg, mice 3
[10] = ex vivo, EJ xenograft mice, i.v. 2 mg/kg, mice 1
[11] = ex vivo, EJ xenograft mice, i.v. 2 mg/kg, mice 2
[12] = ex vivo, EJ xenograft mice, i.v. 2 mg/kg, mice 3
[13] = ex vivo, EJ xenograft mice, i.v. 4 mg/kg, mice 1
[14] = ex vivo, EJ xenograft mice, i.v. 4 mg/kg, mice 2
[15] = ex vivo, EJ xenograft mice, i.v. 4 mg/kg, mice 3
[16] = ex vivo, EJ xenograft mice, i.v. 8 mg/kg, mice 1
[17] = ex vivo, EJ xenograft mice, i.v. 8 mg/kg, mice 2
[18] = ex vivo, EJ xenograft mice, i.v. 8 mg/kg, mice 3

Compound: CC(C)C[C@H](NC(=O)c1ccc(-c2c3nc(c(-c4ccc(C(=O)O)cc4)c4ccc([nH]4)c(-c4ccc(C(=O)O)cc4)c4nc(c(-c5ccc(C(=O)O)cc5)c5ccc2[nH]5)C=C4)C=C3)cc1)C(=O)N[C@@H](CCCCNC(=O)/C=C(/CC(=O)O)C(=O)O)C(=O)N[C@@H](CC(C)C)C(=O)N[C@@H](CCCCN)C(=O)N[C@@H](CC(C)C)C(=O)N[C@@H](CCCCNC(=O)/C=C(/CC(=O)O)C(=O)O)C(=O)NCC(=O)N[C@@H](C)C(=O)N[C@H]1CSSC[C@@H](C(=O)N2CCC[C@H]2C(=O)N[C@H](C(=O)O)C(C)C)NC(=O)[C@@H]2CCCN2C(=O)[C@H](Cc2ccc(O)cc2)NC(=O)[C@H](CC(C)C)NC(=O)[C@@H]2CCCN2C(=O)[C@H](CC(C)C)NC(=O)[C@H](Cc2c[nH]c3ccccc23)NC(=O)[C@H](CC(N)=O)NC1=O [Gi-F-CAA] (X1-LK(X2)LKLK(X2)GACNWLPLYPCPV-OH; disulfide 9-17; C-terminus assumed)
- Tumor Drug concentration ([1]; i.v. 8 mg/kg, 4 h, mice 2): 11.8 µM
- Tumor Drug concentration ([1]; i.v. 8 mg/kg, 4 h, mice 3): 8.38 µM
- Tumor Drug concentration ([1]; i.v. 8 mg/kg, 8 h, mice 1): 7.25 µM
- Tumor Drug concentration ([1]; i.v. 8 mg/kg, 8 h, mice 2): 8.28 µM
- Tumor Drug concentration ([1]; i.v. 8 mg/kg, 8 h, mice 3): 6.04 µM
- Tumor Drug concentration ([1]; i.v. 8 mg/kg, 12 h, mice 1): 5.72 µM
- Tumor Drug concentration ([1]; i.v. 8 mg/kg, 12 h, mice 2): 6.55 µM
- Tumor Drug concentration ([1]; i.v. 8 mg/kg, 12 h, mice 3): 4.61 µM
- Tumor Drug concentration ([1]; i.v. 8 mg/kg, 24 h, mice 1): 4.93 µM
- Tumor Drug concentration ([1]; i.v. 8 mg/kg, 24 h, mice 2): 5.65 µM
- Tumor Drug concentration ([1]; i.v. 8 mg/kg, 24 h, mice 3): 3.95 µM
- tumor tissue lysate signal relative to plasma ([1]; i.v. 8 mg/kg, from 1 h to 24 h): about 3 fold
- level at time molar ([1]; mouse, in vivo, iv, 8 mg/kg): 16.2 µM
- DLS size distribution, Number (%): 0.000191% and 14% and 7.4%
- ex vivo fluorescence signal at the tumor ([2]; 8 mg/kg i.v., versus Gi-F and Gi-F-SA groups): strong fluorescence signal
- fluorescence intensity at tumor relative to kidney [2, 3]: ~ 2.4 fold
- fluorescence intensity at tumor relative to liver [2, 3]: ~ 1.9 fold
- kidney Average FI [2, 4]: 1.89E+07 x10^8 p/cm2/s
- liver Average FI [2, 4]: 2.16E+07 x10^8 p/cm2/s
- tumor Average FI [2, 4]: 1.51E+07 x10^8 p/cm2/s
- kidney Average FI [2, 5]: 1.50E+07 x10^8 p/cm2/s
- liver Average FI [2, 5]: 1.85E+07 x10^8 p/cm2/s
- tumor Average FI [2, 5]: 1.10E+07 x10^8 p/cm2/s
- kidney Average FI [2, 6]: 1.59E+07 x10^8 p/cm2/s
- liver Average FI [2, 6]: 1.52E+07 x10^8 p/cm2/s
- tumor Average FI [2, 6]: 1.37E+07 x10^8 p/cm2/s
- kidney Average FI [2, 7]: 3.76E+07 x10^8 p/cm2/s
- liver Average FI [2, 7]: 4.34E+07 x10^8 p/cm2/s
- tumor Average FI [2, 7]: 2.76E+07 x10^8 p/cm2/s
- kidney Average FI [2, 8]: 3.14E+07 x10^8 p/cm2/s
- liver Average FI [2, 8]: 3.92E+07 x10^8 p/cm2/s
- tumor Average FI [2, 8]: 2.99E+07 x10^8 p/cm2/s
- kidney Average FI [2, 9]: 3.06E+07 x10^8 p/cm2/s
- liver Average FI [2, 9]: 3.19E+07 x10^8 p/cm2/s
- tumor Average FI [2, 9]: 3.48E+07 x10^8 p/cm2/s
- kidney Average FI [2, 10]: 5.61E+07 x10^8 p/cm2/s
- liver Average FI [2, 10]: 6.33E+07 x10^8 p/cm2/s
- tumor Average FI [2, 10]: 4.80E+07 x10^8 p/cm2/s
- kidney Average FI [2, 11]: 4.60E+07 x10^8 p/cm2/s
- liver Average FI [2, 11]: 5.75E+07 x10^8 p/cm2/s
- tumor Average FI [2, 11]: 3.97E+07 x10^8 p/cm2/s
- kidney Average FI [2, 12]: 4.92E+07 x10^8 p/cm2/s
- liver Average FI [2, 12]: 4.67E+07 x10^8 p/cm2/s
- tumor Average FI [2, 12]: 3.88E+07 x10^8 p/cm2/s
- kidney Average FI [2, 13]: 7.41E+07 x10^8 p/cm2/s
- liver Average FI [2, 13]: 9.04E+07 x10^8 p/cm2/s
- tumor Average FI [2, 13]: 9.54E+07 x10^8 p/cm2/s
- kidney Average FI [2, 14]: 6.02E+07 x10^8 p/cm2/s
- liver Average FI [2, 14]: 7.81E+07 x10^8 p/cm2/s
- tumor Average FI [2, 14]: 8.23E+07 x10^8 p/cm2/s
- kidney Average FI [2, 15]: 6.88E+07 x10^8 p/cm2/s
- liver Average FI [2, 15]: 6.42E+07 x10^8 p/cm2/s
- tumor Average FI [2, 15]: 9.16E+07 x10^8 p/cm2/s
- kidney Average FI [2, 16]: 8.52E+07 x10^8 p/cm2/s
- liver Average FI [2, 16]: 1.07E+08 x10^8 p/cm2/s
- tumor Average FI [2, 16]: 2.09E+08 x10^8 p/cm2/s
- kidney Average FI [2, 17]: 6.80E+07 x10^8 p/cm2/s
- liver Average FI [2, 17]: 9.09E+07 x10^8 p/cm2/s
- tumor Average FI [2, 17]: 1.62E+08 x10^8 p/cm2/s
- kidney Average FI [2, 18]: 7.55E+07 x10^8 p/cm2/s
- liver Average FI [2, 18]: 8.19E+07 x10^8 p/cm2/s
- tumor Average FI [2, 18]: 1.71E+08 x10^8 p/cm2/s
